Earlier results in publication PMC9395234.

Target: C4BP (Homo sapiens) (UniProt P04003)
UniProt P04003, sequence (P04003 49-597, chain 1 of 2): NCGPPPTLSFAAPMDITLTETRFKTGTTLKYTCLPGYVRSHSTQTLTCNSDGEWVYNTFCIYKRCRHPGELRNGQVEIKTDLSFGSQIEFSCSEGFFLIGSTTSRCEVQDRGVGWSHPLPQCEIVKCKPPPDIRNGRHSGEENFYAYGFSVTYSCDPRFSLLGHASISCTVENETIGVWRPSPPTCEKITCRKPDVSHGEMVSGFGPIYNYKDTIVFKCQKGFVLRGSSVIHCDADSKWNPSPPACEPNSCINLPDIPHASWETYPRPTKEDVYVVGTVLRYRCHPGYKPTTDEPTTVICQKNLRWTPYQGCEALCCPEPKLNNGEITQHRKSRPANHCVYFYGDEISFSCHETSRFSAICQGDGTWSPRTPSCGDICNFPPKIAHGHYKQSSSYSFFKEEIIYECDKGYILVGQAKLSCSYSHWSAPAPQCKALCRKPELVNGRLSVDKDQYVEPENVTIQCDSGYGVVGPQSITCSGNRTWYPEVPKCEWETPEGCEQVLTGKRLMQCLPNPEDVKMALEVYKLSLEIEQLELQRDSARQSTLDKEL
UniProt P04003, sequence (P20851 18-252, chain 2 of 2, further chain): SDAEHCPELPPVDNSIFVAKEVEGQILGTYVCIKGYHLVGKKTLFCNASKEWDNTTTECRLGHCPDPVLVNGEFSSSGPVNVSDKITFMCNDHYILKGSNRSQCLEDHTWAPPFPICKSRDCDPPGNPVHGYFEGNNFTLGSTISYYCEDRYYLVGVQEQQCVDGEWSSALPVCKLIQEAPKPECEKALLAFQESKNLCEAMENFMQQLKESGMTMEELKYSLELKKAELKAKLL

In the case of Protein S (from UniProt P07225), the Kd is listed as 0.1 nM.
